Laboratory results reported in the RNAGym collection of RNA variant scans (doi:10.7554/elife.90254).

B1: LINE1-mini (parent)
chain: GGCAGAGCUCAACACAGCGUGGCAAAGUGGCUGUGGCUAGACUGCC

Variants of: B1
Assay: self-cleavage, relative activity (ratio to wild type); higher = more cleavage; in vitro, sequencing; the parent is a self-cleaving ribozyme

Row | Variant | self-cleavage
1 | G21U G40C | 0.11
2 | G21U G40A | 0.29
3 | G21C A26C | 1.03
4 | G21C A26U | 1.57
5 | G21C A26G | 0.35
6 | G21C | 0.72
7 | G21U | 1.06
8 | G21C C37A | 0.02
9 | G21C C37G | 0.05
10 | G21C C37U | 0.01
11 | G22A C45A | 0.67
12 | G22A C45U | 1.44
13 | G22A C45G | 0.32
14 | G21C G27C | 0.52
15 | G21C G27U | 0.84
16 | G21C G27A | 0.84
17 | G22C A24C | 0.85
18 | G22C A24U | 0.52
19 | G22C A24G | 0.74
20 | G22C G44C | 0.41
21 | G22C G44A | 0.13
22 | G22C G44U | 0.4
23 | G21U C23G | 0.9
24 | G21U C23A | 1.24

Row | Variant | self-cleavage
25 | G21U C23U | 1.38
26 | G22C U28C | 0.5
27 | G22C U28A | 0.44
28 | G22C U28G | 0.43
29 | G21U A24G | 1.37
30 | G21U A24U | 1.01
31 | G21U A24C | 0.51
32 | G21U C37G | 0.04
33 | G21U C37U | 0.06
34 | G21U C37A | 0.09
35 | G22C C45G | 0.17
36 | G22C C45A | 0.39
37 | G22C C45U | 1.21
38 | G21U U38A | 0.42
39 | G21U U38G | 0.04
40 | G21U U38C | 0.9
41 | G21U G44C | 0.25
42 | G21U G44A | 0.53
43 | G21U G44U | 0.5
44 | G21A C46U | 1.39
45 | G22A A41C | 0.09
46 | G22A A41G | 0.31
47 | G22A A41U | 0.66
48 | G21C G33A | 0.8

Row | Variant | self-cleavage
49 | G21C G33U | 0.11
50 | G21C G33C | 0.05
51 | G21U U43A | 0.08
52 | G21U U43G | 0.07
53 | G21U U43C | 0.2
54 | G21C G29A | 0.5
55 | G21C G29U | 0.48
56 | G21C G29C | 0.55
57 | G22C U38A | 0.31
58 | G21A G29U | 2.19
59 | G21A G29C | 0.63
60 | G21A G29A | 1
61 | G22C A41U | 0.72
62 | G22C A41C | 0.05
63 | G22C A41G | 0.23
64 | G21U G22U | 1.4
65 | G21U G22C | 1.71
66 | G21U G22A | 1.03
67 | G21C U38G | 0.02
68 | G21C U38C | 0.48
69 | G21C U38A | 0.21
70 | G21A G35U | 0.35
71 | G21A G35A | 0.15
72 | G21A G35C | 0.19

Row | Variant | self-cleavage
73 | G21U C42U | 0.53
74 | G21U C42G | 0.04
75 | G21U C42A | 0.23
76 | G21U C45G | 0.18
77 | G21U C45A | 0.68
78 | G21U C45U | 1.62
79 | G22A C31A | 0.2
80 | G22A C31U | 0.49
81 | G22A C31G | 0.1
82 | G21A U38A | 0.89
83 | G21A U38C | 1.12
84 | G21A U38G | 0.03
85 | G22C A39C | 0.19
86 | G22C A39G | 0.09
87 | G22C A39U | 0.55
88 | G21U G35U | 0.22
89 | G21U G35A | 0.16
90 | G21U G35C | 0.13
91 | G21U G33C | 0.08
92 | G21U G33A | 0.26
93 | G21U G33U | 0.17
94 | G21A G40C | 0.22
95 | G21A G40U | 0.19
96 | G21A G40A | 0.29

Row | Variant | self-cleavage
97 | G22C C46U | 0.65
98 | G22C C46G | 0.13
99 | G22C C46A | 0.61
100 | G22C A25G | 1.07
101 | G22C A25C | 0.31
102 | G22C A25U | 1.23
103 | G22A A26C | 0.79
104 | G22A A26U | 0.76
105 | G22A A26G | 1.31
106 | G21U C46A | 1.14
107 | G21U C46G | 1.29
108 | G21U C46U | 1.13
109 | G22A A39G | 0.17
110 | G22A A39U | 0.5
111 | G22A A39C | 0.09
112 | G22C | 0.78
113 | G22A | 0.81
114 | G21U A26G | 1.29
115 | G21U A26U | 1.93
116 | G21U A26C | 1.29
117 | G21C G35A | 0.16
118 | G21C G35C | 0.08
119 | G21C G35U | 0.16
120 | G21A G22C | 0.38

Row | Variant | self-cleavage
121 | G21A G22A | 1.3
122 | G21A G22U | 0.56
123 | G21C G36A | 0.1
124 | G21C G36C | 0.03
125 | G21C G36U | 0.03
126 | G22C G29C | 0.27
127 | G22C G29A | 1.19
128 | G22C G29U | 0.38
129 | G21A G36C | 0.1
130 | G21A G36A | 0.3
131 | G21A G36U | 0.15
132 | G21C U43A | 0.07
133 | G21C U43C | 0.06
134 | G21C U43G | 0.02
135 | G21C G30C | 1.62
136 | G21C G30U | 1.1
137 | G21C G30A | 1.86
138 | G21A U34G | 0.64
139 | G21A U34A | 0.08
140 | G21A U34C | 0.14
141 | G21C C46A | 1.13
142 | G21C C46G | 0.51
143 | G21C C46U | 0.83
144 | G21C G44A | 0.34

Row | Variant | self-cleavage
145 | G21C G44C | 0.4
146 | G21C G44U | 0.28
147 | G22A G36C | 0.13
148 | G22A G36U | 0.15
149 | G22A G36A | 0.1
150 | G21A U32A | 0.08
151 | G21A U32G | 0.1
152 | G21A U32C | 0.48
153 | G22A U38A | 0.33
154 | G22A U38C | 0.68
155 | G22A U38G | 0.01
156 | G22A G40C | 0.09
157 | G22A G40U | 0.12
158 | G22A G40A | 0.08
159 | G22C C42U | 0.21
160 | G22C C42A | 0.13
161 | G22C C42G | 0.03
162 | G22A C37G | 0.03
163 | G22A C37A | 0.04
164 | G22A C37U | 0.05
165 | G22A U43C | 0.07
166 | G22A U43A | 0.06
167 | G22A U43G | 0
